Measurements published in article doi:10.1101/2022.12.23.521728 (bioRxiv, 2022).

Molecular target: ATP synthase F1 α subunit of G. stearothermophilus FoF1 (G. stearothermophilus, UniProt P09219 1-502)
Test: cryo-EM structure

Sequence of ATP synthase F1 α subunit of G. stearothermophilus FoF1 (P09219 whole entry): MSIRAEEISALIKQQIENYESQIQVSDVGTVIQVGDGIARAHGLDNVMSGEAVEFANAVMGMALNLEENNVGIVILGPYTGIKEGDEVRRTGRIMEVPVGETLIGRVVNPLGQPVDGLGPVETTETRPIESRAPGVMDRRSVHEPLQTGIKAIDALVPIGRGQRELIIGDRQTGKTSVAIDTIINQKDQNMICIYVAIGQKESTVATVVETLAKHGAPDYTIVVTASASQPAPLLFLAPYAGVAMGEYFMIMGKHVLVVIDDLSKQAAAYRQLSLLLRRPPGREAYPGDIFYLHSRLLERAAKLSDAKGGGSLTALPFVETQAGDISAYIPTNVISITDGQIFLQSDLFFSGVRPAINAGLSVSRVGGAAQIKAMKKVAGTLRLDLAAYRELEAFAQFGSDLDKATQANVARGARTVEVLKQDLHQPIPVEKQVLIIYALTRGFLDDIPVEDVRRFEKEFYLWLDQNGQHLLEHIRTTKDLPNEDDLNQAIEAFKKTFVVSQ

B1: ATP synthase F1 γ subunit of G. stearothermophilus FoF1 (natural protein)
chain: ASLRDIKTRINATKKTSQITKAMEMVLTSKLNRAEKREIVRPYMEKIQEVVANVALAARASHPMLVSRPVKKTGYLVITSDRGLAGAYNSNVLRLVYQTIQKRHASPDEYAIIVIGRVGLSFFRKRNMPVILDITRLPDQPSFADIKEIARKTVGLFADGTFDELYMYYNHYVSAIQQEVTERKLLPLTDLAENKQRTVYEFEPSQEEILDVLLPQYAESLIYGALLDAKASEHAARMTAMKNATDNANELIRTLTLSYNRARQAAITQEITEIVAGANALQ
B1: binds.
